The values that follow come from publication PMC7954794, “Protein context shapes the specificity of SH3 domain-mediated interactions in vivo” (Nature Communications, 2021).

This assay concerns Abp1 PPIs. Briefly: DHFR-PCA of Abp1 SH3-swapped baits (Fig. 2B-D, S2C, S2F).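 On Protein-protein interaction distance between Abp1 SH3-swapped baits, to ABP1: Euclidean distance between DHFR-PCA score profiles of the baits.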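 On Protein-protein interaction distance between Abp1 SH3-swapped baits, to BEM1-2: Euclidean distance between DHFR-PCA score profiles of the baits.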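 On Protein-protein interaction distance between Abp1 SH3-swapped baits, to BOI1: Euclidean distance between DHFR-PCA score profiles of the baits.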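 On Protein-protein interaction distance between Abp1 SH3-swapped baits, to BZZ1-1: Euclidean distance between DHFR-PCA score profiles of the baits.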 The class given is cell-based, Saccharomyces cerevisiae. Put shortly: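 Interactions were scored by DHFR protein-fragment complementation. DHFR F[1,2]-tagged Abp1 strains, whose SH3 was swapped for yeast or human ortholog domains, were crossed on YPD at 30 °C for 48 h with a 1536-format array of 575 prey-DHFR F[3] strains and 40 negatives, giving four replicates per pair. PCA selection lasted 4 days after double diploid selection.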

B1: YBL039C (protein, UniProt P28274 1-579, looked up)
CTP synthase 1: MKYVVVSGGVISGIGKGVLASSTGMLMKTLGLKVTSIKIDPYMNIDAGTMSPLEHGECFVLDDGGETDLDLGNYERYLGVTLTKDHNITTGKIYSHVIAKERKGDYLGKTVQIVPHLTNAIQDWIERVAKIPVDDTGMEPDVCIIELGGTVGDIESAPFVEALRQFQFKVGKENFALIHVSLVPVIHGEQKTKPTQAAIKGLRSLGLVPDMIACRCSETLDKPTIDKIAMFCHVGPEQVVNVHDVNSTYHVPLLLLEQKMIDYLHARLKLDEISLTEEEKQRGLELLSKWKATTGNFDESMETVKIALVGKYTNLKDSYLSVIKALEHSSMKCRRKLDIKWVEATDLEPEAQESNKTKFHEAWNMVSTADGILIPGGFGVRGTEGMVLAARWARENHIPFLGVCLGLQIATIEFTRSVLGRKDSHSAEFYPDIDEKNHVVVFMPEIDKETMGGSMRLGLRPTFFQNETEWSQIKKLYGDVSEVHERHRHRYEINPKMVDELENNGLIFVGKDDTGKRCEILELKNHPYYIATQYHPEYTSKVLDPSKPFLGLVAASAGILQDVIEGKYDLEAGENKFNF
Consider B1, for which the “medrep (log2 median colony size normalized to plate background)” value (Fig2B, bait ABP1, label = prey, Replicates 4) was determined as 3.877.

B2: ABP1: yeast SH3-containing protein; SH3-deleted (D) or gene-deleted (KO) strain (protein, UniProt P15891 2-592, looked up)
Actin-binding protein: ALEPIDYTTHSREIDAEYLKIVRGSDPDTTWLIISPNAKKEYEPESTGSSFHDFLQLFDETKVQYGLARVSPPGSDVEKIIIIGWCPDSAPLKTRASFAANFAAVANNLFKGYHVQVTARDEDDLDENELLMKISNAAGARYSIQTSSKQQGKASTPPVKKSFTPSKSPAPVSKKEPVKTPSPAPAAKISSRVNDNNDDDDWNEPELKERDFDQAPLKPNQSSYKPIGKIDLQKVIAEEKAKEDPRLVQKPTAAGSKIDPSSDIANLKNESKLKRDSEFNSFLGTTKPPSMTESSLKNDDDKVIKGFRNEKSPAQLWAERKAKQNSGNAETKAEAPKPEVPEDEPEGEPDVKDLKSKFEGLAASEKEEEEMENKFAPPPKKSEPTIISPKPFSKPQEPVKAEEAEQPKTDYKKIGNPLPGMHIEADNEEEPEENDDDWDDDEDEAAQPPLPSRNVASGAPVQKEEPEQEEIAPSLPSRNSIPAPKQEEAPEQAPEEEIEEEAEEAAPQLPSRSSAAPPPPPRRATPEKKPKENPWATAEYDYDAAEDNELTFVENDKIINIEFVDDDWWLGELEKDGSKGLFPSNYVSLGN
Regarding B2, the “Protein-protein interaction distance between Abp1 SH3-swapped baits, to ABP1” value (Abp1 bait with swapped SH3, distance to bait with ABP1 SH3, sheet Fig2C) worked out at 0.00. Further, the “Protein-protein interaction distance between Abp1 SH3-swapped baits, to BBC1” value (distance to Abp1 bait with BBC1 SH3, sheet Fig2C) is listed as 7.08. Further, where the note is “distance to Abp1 bait with BEM1-1 SH3, sheet Fig2C”, the “Protein-protein interaction distance between Abp1 SH3-swapped baits, to BEM1-1” value is 14.06. Moreover, the “Protein-protein interaction distance between Abp1 SH3-swapped baits, to BEM1-2” value (distance to Abp1 bait with BEM1-2 SH3, sheet Fig2C) is on record as 32.3. Moreover, the “Protein-protein interaction distance between Abp1 SH3-swapped baits, to BOI1” value (distance to Abp1 bait with BOI1 SH3, sheet Fig2C) stood at 11.59. Besides, the “Protein-protein interaction distance between Abp1 SH3-swapped baits, to BOI2” value (distance to Abp1 bait with BOI2 SH3, sheet Fig2C) stood at 14.52. In addition, the “Protein-protein interaction distance between Abp1 SH3-swapped baits, to BUD14” value (distance to Abp1 bait with BUD14 SH3, sheet Fig2C) is listed as 17.23. In addition, the “Protein-protein interaction distance between Abp1 SH3-swapped baits, to BZZ1-1” value (distance to Abp1 bait with BZZ1-1 SH3, sheet Fig2C) is 9.504. The “Protein-protein interaction distance between Abp1 SH3-swapped baits, to BZZ1-2” value (distance to Abp1 bait with BZZ1-2 SH3, sheet Fig2C) is recorded as 10.54. In addition, under “distance to Abp1 bait with CDC25 SH3, sheet Fig2C”, the “Protein-protein interaction distance between Abp1 SH3-swapped baits, to CDC25” value came out at 26.13. For the same molecule, the “Protein-protein interaction distance between Abp1 SH3-swapped baits, to CTTN” value (distance to Abp1 bait with CTTN SH3, sheet Fig2C) came out at 9.394. Further, the “Protein-protein interaction distance between Abp1 SH3-swapped baits, to CYK3” value (distance to Abp1 bait with CYK3 SH3, sheet Fig2C) worked out at 26.78. Besides, where the note is “distance to Abp1 bait with DBNL SH3, sheet Fig2C”, the “Protein-protein interaction distance between Abp1 SH3-swapped baits, to DBNL” value stood at 8.805. Moreover, under “distance to Abp1 bait with FUS1 SH3, sheet Fig2C”, the “Protein-protein interaction distance between Abp1 SH3-swapped baits, to FUS1” value was 18.44. The “Protein-protein interaction distance between Abp1 SH3-swapped baits, to HCLS1” value (distance to Abp1 bait with HCLS1 SH3, sheet Fig2C) was 7.682. The “Protein-protein interaction distance between Abp1 SH3-swapped baits, to HOF1” value (distance to Abp1 bait with HOF1 SH3, sheet Fig2C) is 30.98. For the same molecule, under “distance to Abp1 bait with HSE1 SH3, sheet Fig2C”, the “Protein-protein interaction distance between Abp1 SH3-swapped baits, to HSE1” value is reported as 9.43. The “Protein-protein interaction distance between Abp1 SH3-swapped baits, to LSB1” value (distance to Abp1 bait with LSB1 SH3, sheet Fig2C) was 13.24. Besides, the “Protein-protein interaction distance between Abp1 SH3-swapped baits, to LSB3” value (distance to Abp1 bait with LSB3 SH3, sheet Fig2C) is 13.53. Moreover, under “distance to Abp1 bait with MYO3 SH3, sheet Fig2C”, the “Protein-protein interaction distance between Abp1 SH3-swapped baits, to MYO3” value amounted to 12.85. Moreover, where the note is “distance to Abp1 bait with MYO5 SH3, sheet Fig2C”, the “Protein-protein interaction distance between Abp1 SH3-swapped baits, to MYO5” value amounted to 12.37. Moreover, under “distance to Abp1 bait with NBP2 SH3, sheet Fig2C”, the “Protein-protein interaction distance between Abp1 SH3-swapped baits, to NBP2” value is recorded as 16.16. For the setting “distance to Abp1 bait with PEX13 SH3, sheet Fig2C”, the “Protein-protein interaction distance between Abp1 SH3-swapped baits, to PEX13” value amounted to 10.96. Moreover, the “Protein-protein interaction distance between Abp1 SH3-swapped baits, to PIN3” value (distance to Abp1 bait with PIN3 SH3, sheet Fig2C) came out at 11.43. Further, the “Protein-protein interaction distance between Abp1 SH3-swapped baits, to RVS167” value (distance to Abp1 bait with RVS167 SH3, sheet Fig2C) is reported as 9.548. Further, the “Protein-protein interaction distance between Abp1 SH3-swapped baits, to SDC25” value (distance to Abp1 bait with SDC25 SH3, sheet Fig2C) is on record as 33.14. In addition, for the setting “distance to Abp1 bait with SHO1 SH3, sheet Fig2C”, the “Protein-protein interaction distance between Abp1 SH3-swapped baits, to SHO1” value is on record as 8.989. The “Protein-protein interaction distance between Abp1 SH3-swapped baits, to SLA1-1” value (distance to Abp1 bait with SLA1-1 SH3, sheet Fig2C) is 28.73. Further, for the setting “distance to Abp1 bait with SLA1-2 SH3, sheet Fig2C”, the “Protein-protein interaction distance between Abp1 SH3-swapped baits, to SLA1-2” value is given as 19.01. Further, under “distance to Abp1 bait with SLA1-3 SH3, sheet Fig2C”, the “Protein-protein interaction distance between Abp1 SH3-swapped baits, to SLA1-3” value is 13.16. The “Protein-protein interaction distance between Abp1 SH3-swapped baits, to YSC84” value (distance to Abp1 bait with YSC84 SH3, sheet Fig2C) came to 13.97.
